The nanobody polyreactivity screen of Harvey et al. (2022)

Experiment: yeast display, Sf9 membrane polyspecificity reagent, FACS + sequencing; frameworks hold sequencing errors
How it was run: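 A nanobody's polyreactivity label depends on the gate it was sorted from. Yeast display cells were stained with 10% biotinylated, detergent-solubilized Sf9 membrane reagent for 1 hour at 4 °C, enriched on streptavidin microbeads and sorted by FACS. The low and high (top ~1%) gates were set on anti-HA fluorescence for expression and streptavidin fluorescence for reagent binding.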

Sequence | polyreactivity (PSR sort gate)
QVQLVESGGGLVQAGVSLRLRCASSGSTFAYNAMGWYRQAPGKESELVAAISTSGGYTYYADSVKGRFTISRDNAKNTVYLQMNSLKPEDTAVYYCYAVGRSKHGYSRSYYWGQGTQVTVSS | high polyreactivity
QVQLVESGGGLVQAGGSLRLSCAASGLTFAYYVMGWYRQAPGKERELVATITRGGDTYYADSVKGRFTISRANAKNTVYVQMNSLTPEDTAVYYCNAVWRVKYRRGLDYWGQGTQVTVSS | high polyreactivity
QVQLVESGGGVVQAGGSLRLSCAASGRNFYSYAMGLYTQAPGKERELVAAISKRGTSTYYADSVKGRFTISRDNAKNTVYLQMNSLKPEDTAVYYCAAVHWRYQYSLRYDYWGQGTQVTVSS | high polyreactivity
QVQLVESGGGLVQAGGSLRLSCAASGRTFPFNAMGWYRQAPGKERELVAGISSGGRTNYADSVKGRFTISRDNAKNTVYLQMNSMQPEDTAVYYCAARYQPSRAARWTLDYWGQGTQVTVSS | high polyreactivity
QVQLVESGGGLVQAGGSLRLSCADSGSIFDFNALGWYRQAPRKERELVAAITWSGGSTYYSDSVKGRFTISRDYAKNTVYLQMNSLKPEDTAVYYCAADSLYDDFYYWGQGTQVTVSS | low polyreactivity
QVQLVESGGGLVQAGGSLRLSCAASGSTFVGYAMGWYRQAPGKERELVADIDSIGGSTYYADSVKGRFTISRDNAKNTVYLQMNSLKPEDTAVYYCAARRFDTALVLYDYWGQGTQVTVSS | low polyreactivity
QVQLVESGGGLVQAGGSLRLSCAASGRTLGRNAMGWYRQAPGKERELVASISSGGSTNYADSVKGRFTISRDNAKNTVYLQMNSLKPEDTAVYYCNKRYRSLYSSGYDYWGQGTQVTVSS | high polyreactivity
QVQLQESGGGLLQAGGSLRLSCAASGIIFDNPNKGWYRQAPGKERDLVATINSGATTNYADSVKGRFTISRDNAKNTVYLQMNSLIPVDTAVYYCAVDLSPTYFYYWGQGTQVTVSS | high polyreactivity
QVQLVESGGGLVQAGGSLRLSCAASGSTFYIYAMGWYRQAPGKERELVATITRAGTTNYADSVKGRFTISRDNAMNTVYLQMNSLKPEETAVYYCAKRKFRWPYQGSYSYIPFGYCGQGTQVTVSS | high polyreactivity
QVQLVESGGGLVQAGGSLRLSCAASGYTGVYALGWYRQAPGKERELVADITSGGNTDYADSVKGRFTISRDNAKNTVYLQMNSLKPEDTAVYYCATPYRRLNTWIYDYWGQGTQVTVSS | high polyreactivity
QVKLVETGGGLVQAGGSLRLSCAASGSTFGLYAMGWYRQAPGKERELVAAITWRGGRTYYADSVKGRFTISRDNAKNTVDLQMNSLKPEDTAVNFCAKGYDYYVRRYYYWGQGTQVTVSS | high polyreactivity
QVQLVESGGGLVQAGGSLRLSCAASGFTIDKNVMGWYRQAPGKERELVAAISVRGGTTYYADSVKGRFTISRDNAKNTVYLQMNSLKPEDTAVYYCAARAYGPPARYDSWGQGTQVTVSS | low polyreactivity
QEQLVESGGGLVQAGGSLRLTCAASGRTFFRYARGWYRQAPGKEREVVAAISSGGSTYYADTVKGRFTISRDNAKNTVYLQMNSLKPEDTAVYYCATRNYRLWPYVSVAYDYCGQGTQVTVSS | high polyreactivity
PVQLVESGGGLVQAGGSLPLSCAASGRTFPFNAMRWYRQAPGKERELVATINYRGGSTYYADSVKGRFTISRDNAKNTVYLQMNSLKPEDTAVYYCAAGKIGRYHYDYWGQGTQVTVSS | high polyreactivity
QVQLVESGGGLVQAGGSLRLTCAASGFTFGRYAMGWYRQAPGKERELVAAISTRGGSTYYADSVKGRFTISRDNAKNTVYLQMNSLKPEDTAVYYCAAGGYYVRYDYWGQGTQVTVSS | high polyreactivity
QVQLVESGGGLVQAGGSLRISCAASGSIFRRNAMGWYRQAPGKERELVATITSDGSTDYADSVKGRFTISRDNAKYTVYLQMNRLKPEDTVYYCAAGRTPYWHATFGYWGQGTQVTVSS | low polyreactivity
QVQLVESGGGLVQAGGSLRLSCAASGFTIQRYAMGWYRQAPGKERELVAAITSGGSTYYADSVKGSFTISRDNAKNTVYFQMNSLKPEDTSVYYCATRAVWSSWGRRYDSWGQGTQVTVSS | high polyreactivity
QVQLLESGGGLVQAGGSLRLSCAASGFTFGRYAMGWYRQAPGKERELVAAINTSGDRTFYADSVKGRFTISRDNAKNTVYLQMNSLKPVDTAVYYCAADVQSWVYPGSLYYWTYDFWGQGTQVTVSS | high polyreactivity
QVQLVESGGGLVQAGGSLRLSCAASGRIFYLNAMGWYRQAPGKERELVAVITGNAGSTYYADSVKGRFTISRDNAKNTVYLQMNSLKPEDTAVYYCNALRLVPWSDALYDYWGQGTQVTVSS | low polyreactivity
QVQLVESGGGLVQAGGSLRLSCAASGRNFDWYAMGWYRQAPGKERELVAAISTSGANTYYADSVKGRFTISRDNAKNTVYLQMNSLKPEDTAVYYCATDPYQPYEGDYWGQGTLVTVSS | low polyreactivity
QVQLVESGGGLVQAGGSLRLSCAASGSTFLNYAMGWYRQAPGKERELVAAISGSTTRTYYADSVKGRFTISRDNAKNTVYLQMNSLKPEDTAVYYCARYSLYTGYRRYPLDYDYWGQGTQVTVSS | high polyreactivity
QVQLVESGAGLVQAGGSHRLSCAASGRNFYWNARGWYRQAPGKEREFVAAISWSGGSTYADSVKGRFTISRDNAKNTVYLQMNSLKPEDTAVYYCAIRVSRSFRAYDYWGQGTQVTVSS | high polyreactivity

Sequence | polyreactivity (PSR sort gate)
QVQLVESGGGLVQAGGSLRLTCAASGNIFRAYAMGWYRQAPGKERELVAAISWNAGTTYYADSVKGRFTISRDHAKNTVYLQMHSLKPEDTAVYYCAASKLLRRGLCKYYKATYSYDYWGQGTQVTVSS | high polyreactivity
QLQLVESGGGLVQAGGSLRLSFAASSIIPYNAMGWYRQAPVNEREFVAAISVRGVITYYADSVKGRFTISRDNAKNTVYLQMNSLKPEDTAVYDCAADYQPAGVDYWGQGTQVTVSS | low polyreactivity
QVQLVDSGGGLVQAGGSLRLSCDASGSTFRGTVMGWYRQAPGKERELVAGIYSGGSTYYADSVKGRFTISRDNAKNTVYLQMNSLKPEDTAVYYCAAYRRQHIIYNDWGQGTQVTVSS | high polyreactivity
QVQLVESGGGLVQAGGSLRLSCAASGSTFNGYVMGWYRQAPGKERELVAAISRSGGSTYYADSVKGRFTISRDNAKNTVYLQMNSLKPEDTAVYYCAVQRKSSKRAFRYGYWGQGTQVTVSS | high polyreactivity
QVQQQESGGGLVQACGSLPLSCAASVSIFTQATMGWYRQPPGKERELVAAINFGSSTYYADSVKGRFTISRDNAKSTVYLQMNSLKPEDTSVYYCAVRALWYDLHDYWGQGTQVTVSS | high polyreactivity
QVQLVESGGGLVQAGGSLRLSCAPSGITFRHYALGGYRQAPGKERELVAAITSRGGSTYYADSVKGRFTISRDNAKNTVYLQMNSLKPEDTAVYYCNKRLYYQRWPAAAREYWGQGTQVTVSS | high polyreactivity
QVQRVESGGGLVQAGGSLRLSCAASGSIFRFYAMGWYRQARGKERELVAAITSGGSTNYADSVKGRFTISRDNAKNTVFLQMKSLKPEDTAVYYFNAGLFYKPQYGYWGQGTQVTVSS | high polyreactivity
QVQLVESGGGLVQAGGSLRLSCAASGFTFSYYAMGWYRQAPGKERELVAAISWSGGSTYYADSVKGRFTISRDNAKNTVYLQMNSLKPEDTAVYYCARVLTRPGRLDYWGQGTQVTVSS | high polyreactivity
QVQLVESGGVLVQAGGSLRLSCAASGRTFLYNAMGWYRQAPGKERELVAAISSRGARTYYADSVKGRFTISRDNAKKTVYLQMNSLKPEDTAVYYCAASYTTAYYRYDYWGQGTQVTVSS | high polyreactivity
QVQLVESGGGLVQAGGSLRLSCAASGRIFVYNVMGWYRQAPGKERELVADISVGGGSTYYADSVKGRFTISRDNAKNTVYLQMNSLKPEDTAVYYCAASYYSGQSVRDDIMYYWGQGTQVTVSS | low polyreactivity
QVQRVESGGGLVQAGGSLRLSCAASGNTFYGYTMGWYRQAPGKERELVAAISGRGGSTTYADSVKGRFTISRDNEKNTVYCQMNSLKPEDTAVYDCAANSVYIRTRFYYWGQGTQETVSS | high polyreactivity
QVQLVESGGGLVQAGGSLRLSCAASGIIFAKYAMGWYRQAPGKERELVAGISRSGGRTYYADSVKGRFTISRDNAKNTVYLQMNSLKPEDTAVYYCAAVPHGTGGWWKYDYWGQGTQVTVSS | high polyreactivity
QGQLVESGGGLVQAGGSLRLSCAASGITFGDNAMGWYRQAPGKERELVAAISSGGSTDYADSVKGRFTISRDNAKNTVYLQMNSLKPEDTAVYYCAFDWVSVPEYDYWGQGTQVTVSS | low polyreactivity
QVQLVESGGGLVQAGGSLRLISAASGITFDYYAIGWSRQAPGKERELVAAITNDGRTYYADSVKGRFTISRDNAKNTVYLQMNSLKPEDTAVYYCARLTFREYDYWGQGTQVTVSS | low polyreactivity
QVQLVESGGGLVQAGGSLRLSCAASGSTFEPYAMGCYRQAPGKERELVAAISWSGGSTYYADSVKGRFTISRDNAKNTVDLQMNSLKPEDTAVYYCAAESGVPYYLPVVIYYYWGQGTQVTVSS | high polyreactivity
QVQLVESGGGLVQAGGSLRLSCAASGSIFYVYAMGWYRQAPGKERELVAAISSSAGSTYYADSVKGRFTISRDNAKNTVYLQMNSLKPEDTAVYYCAAKVRYSLRKYYYWGQGTQVTVSS | high polyreactivity
QVQLVESGGGLVQAGGSLRLSCAASGFIFRTYAMGWYRQAPRKERELVAAITYSAGSTYYADSVKGRFTISRDNAKNTVYLQMNSLKPEDTAVYYCNVRKTWYGYSVTGRYDYWGQGTQVTVSS | low polyreactivity
QVQLVESGGGLVQAGGSLRLSCAASGLIFWRYDMGWYRQAPGKERELVAVITSGGNTYYADSVKGRFTISRDNAKNTVYLQMNSLKPEDTAVYYCNADTWRDDYDYWGQGTQVTVSS | low polyreactivity
QVQLVESGGGLVQAGGSLRLSCAASGSIFQRYAMGWYRQAPGKEREFVAAISGRGGSTYYADSVKGRFTISRDNAKNTVYLQMNSLKPEDTAVYYCAADSSRFYGRPRYYYWGQGTQVTVSS | high polyreactivity
QVQLVESGGGLVQAGGRLRLSCAASGSISNRYAMGWYRQAPGKERELVAAISTGGGTTYYADSVKGRFTISRDNAKNTVYLQMNSLKPEDTAVYYCAADDWRYYRELDYWGQGTQVTVSS | low polyreactivity
QVQLVESGGALVQAGGSLRLSCAASGRTFNYYAKGWSRQAPGKERELVAAITNGVSTKYADSVKGRFTISRDNAKNTVYLQMNSLKPEDTAVYYCAAQRLYGYRLYNYWGQGTQVTVSS | high polyreactivity
